Measured values published in US20120141501A1 (Chugai, published 2012).

Legend:
[1] = molecular target: T1, mature TGFα (R&D Systems, 239-A) (human, UniProt P01135 40-89); assay: ELISA on immobilized TGFα (R&D Systems, 239-A)
[2] = molecular target: T1, mature TGFα (R&D Systems, 239-A); assay: ELISA on immobilized mature TGFα, COS-7 supernatant
[3] = molecular target: T1, mature TGFα (R&D Systems, 239-A); assay: ELISA on immobilized mature TGFα (R&D Systems, 239-A)

binding result [2]	Binder	other results
–	EP19 monoclonal antibody (mouse hybridoma anti-EREG antibody) (antibody, V domains shown, Hybridoma antibody from WO 2008/047723; The variable region entries may include leader residues; also called EP19 antibody) VH: EVQLQQSGPELEKPGASVKISCKASGYSFTGYNMNWVKQSNGKSLEWIGNIDPYYGAASYNQKFKGKATLTVDKSSSTAYMQLKSLTSEDSAVYYCARSQLPYWYFDVWGAGTTVTVSS VL: DIVMTQSPSSLTVTAGEKVTMSCKSSQSLLNSGNQKNYLTWYQQKPGQPPKLLIYWASTRESGVPDRFTGSGSGTDFTLTISSVQAEDLAVYYCQNDYSYPYTFGGGTKLEIK	binding result [1]: binds
binds	#2-20 recombinant human chimeric antibody (#2-20 VH/VL with human IgG1 constant region) (antibody, Transiently expressed in COS-7 and tested as culture supernatant) heavy: not shown light: DIQMTQTTSSLSASLGDRVTISCRSSQDIRNYLNWYQQKPDGTVKLLIYYTSRSHSGVPSRFSGSGSGTDYSLTISNLEQEDIATYFCQQGNMFPFTFGGGTKLEIKRTVAAPSVFIFPPSDEQLKSGTASVVCLLNNFYPREAKVQWKVDNALQSGNSQESVTEQDSKDSTYSLSSTLTLSKADYEKHKVYACEVTHQGLSSPVTKSFNRGEC	–
–	mouse hybridoma anti-TGFα antibody #2-20 (antibody, V domains shown, Mouse IgG purified from hybridoma supernatant; also called #2-20 antibody; mouse #2-20 antibody) VH: DVQLQESGPGLVKPSQSLSLTCTVTGYSITSDYAWNWIRLFPGNKLEWMGFINYSGNTSYNPSLKSRISITRDTSKNQFFLKLNSLTTDDTATYYCARGGLSRFPYWGQGTLVTVSA VL: DIQMTQTTSSLSASLGDRVTISCRSSQDIRNYLNWYQQKPDGTVKLLIYYTSRSHSGVPSRFSGSGSGTDYSLTISNLEQEDIATYFCQQGNMFPFTFGGGTKLEIK	binding result [3]: binds
binds	#2-20 mouse chimeric IgG2a recombinant antibody (#2-20 VH/VL with mouse IgG2a constant region) (antibody, Transiently expressed in COS-7 and tested as culture supernatant; also called recombinant mouse chimeric IgG2a antibody; mouse IgG2a antibody) heavy: DVQLQESGPGLVKPSQSLSLTCTVTGYSITSDYAWNWIRLFPGNKLEWMGFINYSGNTSYNPSLKSRISITRDTSKNQFFLKLNSLTTDDTATYYCARGGLSRFPYWGQGTLVTVSAAKTTAPSVYPLAPVCGGTTGSSVTLGCLVKGYFPEPVTLTWNSGSLSSGVHTFPALLQSGLYTLSSSVTVTSNTWPSQTITCNVAHPASSTKVDKKIEPRVPITQNPCPPLKECPPCAAPDLLGGPSVFIFPPKIKDVLMISLSPMVTCVVVDVSEDDPDVQISWFVNNVEVHTAQTQTHREDYNSTLRVVSALPIQHQDWMSGKEFKCKVNNRALPSPIEKTISKPRGPVRAPQVYVLPPPAEEMTKKEFSLTCMITGFLPAEIAVDWTSNGRTEQNYKNTATVLDSDGSYFMYSKLRVQKSTWERGSLFACSVVHEGLHNHLTTKTISRSLGK light: DIQMTQTTSSLSASLGDRVTISCRSSQDIRNYLNWYQQKPDGTVKLLIYYTSRSHSGVPSRFSGSGSGTDYSLTISNLEQEDIATYFCQQGNMFPFTFGGGTKLEIKRADAAPTVSIFPPSSEQLTSGGASVVCFLNNFYPKDINVKWKIDGSERQNGVLNSWTDQDSKDSTYSMSSTLTLTKDEYERHNSYTCEATHKTSTSPIVKSFNRNEC	–
